Laboratory results taken from PMC5566995, “Development and Characterization of a Camelid Single Domain Antibody–Urease Conjugate That Targets Vascular Endothelial Growth Factor Receptor 2” (Frontiers in Immunology, 2017).

Tests used:
recombinant VEGFR2/Fc = target: T1, recombinant VEGFR2/Fc (Homo sapiens (assumed), UniProt P35968); assay: ELISA; VEGFR/Fc (0.25 ug/mL) captured on plates coated with goat anti-human IgG-Fc; dilutions of antibody-urease conjugate or biotinylated antibody in 0.1% BSA/T-TBS, room temperature, 2 h; conjugates detected with rabbit anti-urease and goat anti-rabbit-AP, biotinylated antibody with streptavidin-alkaline phosphatase; A405; conditions: both partners purified
T1 construct: vascular endothelial growth factor receptor 2 (VEGFR2), recombinant Fc fusion protein; Fc fusions of this supplier usually hold the extracellular domain (surmise); also called vascular endothelial growth factor receptor 2 Fc fusion; source: bought: R&D Systems

[1] = target: T2, VEGFR2 expressed by 293/KDR cells (Homo sapiens (assumed; KDR), UniProt P35968); assay: flow cytometry on cells; 293/KDR cells incubated with conjugate or biotinylated antibody in staining buffer (PBS with Ca2+ and Mg2+, 0.02% NaN3, 2% FBS) at 2-8 C for 1 h; conjugates detected with mouse anti-urease and AF488-anti-mouse IgG, biotinylated antibody with PE-SA; signal as ratio to 293 cells or to a biotin-isotype control; conditions: one partner purified
T2 construct: vascular endothelial growth factor receptor 2 (VEGFR2, KDR) expressed on 293/KDR cells; source: 293/KDR cells, on the cell surface

V21H4-DOS47 = target: T3, V21H4-DOS47 (llama | jack bean (Canavalia ensiformis)); assay: ELISA; VEGFR/Fc (0.25 ug/mL) captured on plates coated with goat anti-human IgG-Fc; dilutions of antibody-urease conjugate or biotinylated antibody in 0.1% BSA/T-TBS, room temperature, 2 h; conjugates detected with rabbit anti-urease and goat anti-rabbit-AP, biotinylated antibody with streptavidin-alkaline phosphatase; A405; conditions: both partners purified
T3 construct: as the chain of m1; residues 1-127 of V21H4; urease, jack bean (Canavalia ensiformis), homohexamer, purified from crude urease; Antibody-urease conjugate; the standard method gives 8.7-9.2; also called V21-DOS47; V21H4-DOS47 (8.8 antibodies/urease); source: conjugate purified by diafiltration; copies: 8.8 + 6

T1 sequence (P35968 20-764): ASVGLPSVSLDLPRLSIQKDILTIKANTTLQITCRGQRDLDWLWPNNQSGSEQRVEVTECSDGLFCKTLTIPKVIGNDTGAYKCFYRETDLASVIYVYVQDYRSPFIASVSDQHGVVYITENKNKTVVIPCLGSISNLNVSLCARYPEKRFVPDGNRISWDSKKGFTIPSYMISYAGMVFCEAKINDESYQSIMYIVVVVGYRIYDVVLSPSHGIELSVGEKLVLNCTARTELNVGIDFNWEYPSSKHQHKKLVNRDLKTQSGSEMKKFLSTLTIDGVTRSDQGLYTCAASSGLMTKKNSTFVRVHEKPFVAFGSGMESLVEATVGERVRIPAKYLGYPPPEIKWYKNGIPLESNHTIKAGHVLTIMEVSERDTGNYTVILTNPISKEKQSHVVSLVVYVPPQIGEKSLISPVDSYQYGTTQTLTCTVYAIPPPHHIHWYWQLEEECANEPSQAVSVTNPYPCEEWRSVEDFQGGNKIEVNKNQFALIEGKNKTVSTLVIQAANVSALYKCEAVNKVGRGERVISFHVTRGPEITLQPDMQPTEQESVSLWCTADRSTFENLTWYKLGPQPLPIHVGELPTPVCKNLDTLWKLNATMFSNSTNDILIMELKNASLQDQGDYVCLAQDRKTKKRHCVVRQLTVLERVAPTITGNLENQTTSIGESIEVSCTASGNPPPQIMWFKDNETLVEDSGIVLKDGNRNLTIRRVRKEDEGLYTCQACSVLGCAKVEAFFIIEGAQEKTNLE
T2 sequence (P35968 20-1356): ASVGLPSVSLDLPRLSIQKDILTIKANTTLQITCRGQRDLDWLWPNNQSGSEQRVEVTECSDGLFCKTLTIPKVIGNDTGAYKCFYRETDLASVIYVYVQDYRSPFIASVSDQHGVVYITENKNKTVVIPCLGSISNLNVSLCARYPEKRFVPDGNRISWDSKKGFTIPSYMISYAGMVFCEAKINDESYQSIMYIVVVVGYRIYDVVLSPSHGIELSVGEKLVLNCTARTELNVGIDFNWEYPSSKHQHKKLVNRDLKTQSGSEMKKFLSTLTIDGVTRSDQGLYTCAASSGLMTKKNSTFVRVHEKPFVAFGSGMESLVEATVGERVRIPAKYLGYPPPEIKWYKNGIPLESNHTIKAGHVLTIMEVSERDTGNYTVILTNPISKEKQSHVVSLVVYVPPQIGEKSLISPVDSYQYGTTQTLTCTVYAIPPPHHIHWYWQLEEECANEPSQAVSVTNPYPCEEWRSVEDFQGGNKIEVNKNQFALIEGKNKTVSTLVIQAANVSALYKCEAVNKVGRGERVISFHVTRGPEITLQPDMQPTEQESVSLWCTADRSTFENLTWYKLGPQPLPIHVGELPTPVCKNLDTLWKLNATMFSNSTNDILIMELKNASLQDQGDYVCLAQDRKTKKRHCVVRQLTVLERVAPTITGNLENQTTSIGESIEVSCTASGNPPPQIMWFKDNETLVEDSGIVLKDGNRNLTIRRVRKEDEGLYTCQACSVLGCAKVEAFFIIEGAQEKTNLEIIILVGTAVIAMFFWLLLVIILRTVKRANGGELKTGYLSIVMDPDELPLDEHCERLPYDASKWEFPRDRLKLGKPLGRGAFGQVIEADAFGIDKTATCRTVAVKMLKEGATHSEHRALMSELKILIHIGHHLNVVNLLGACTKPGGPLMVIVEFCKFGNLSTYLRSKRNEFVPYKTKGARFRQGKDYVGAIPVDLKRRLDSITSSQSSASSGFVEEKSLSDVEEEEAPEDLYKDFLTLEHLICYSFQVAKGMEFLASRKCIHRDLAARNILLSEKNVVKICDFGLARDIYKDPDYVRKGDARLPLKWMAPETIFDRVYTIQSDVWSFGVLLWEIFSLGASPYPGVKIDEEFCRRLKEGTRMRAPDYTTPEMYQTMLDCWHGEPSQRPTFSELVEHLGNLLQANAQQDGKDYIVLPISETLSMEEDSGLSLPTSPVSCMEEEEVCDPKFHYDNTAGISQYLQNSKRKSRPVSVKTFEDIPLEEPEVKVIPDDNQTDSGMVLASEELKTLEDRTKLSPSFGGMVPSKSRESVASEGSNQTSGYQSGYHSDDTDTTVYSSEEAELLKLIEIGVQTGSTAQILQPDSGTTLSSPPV

B1: biotin-V21H4 (VHH)
VHH: QVQLVESGGGLVQAGGSLRLSCAASGRAFSSYAMGWFRQAPGKERELVAAISWSDDSTYYANSVKGRFTISRDNAKSAVYLQMNSLKPEDTAVYYCAAHKSLQRPDEYTYWGQGTQVTVSS
notes: residues 1-127: V21 core (122 residues, ending at S122) and the first of the added C-terminal residues G123-C136; C136 is the added terminal cysteine; 136 residues in all; also called V21H4 antibody; biotinylated V21H4
Question: For B1, which EC50 (recombinant VEGFR2/Fc) is on record?
Answer: 1.8 nM

Question: And the EC50 [1]?
Answer: 1.6 nM

B2: VEGFR1/Fc (Fc fusion, UniProt P17948 27-758, looked up)
chain: SKLKDPELSLKGTQHIMQAGQTLHLQCRGEAAHKWSLPEMVSKESERLSITKSACGRNGKQFCSTLTLNTAQANHTGFYSCKYLAVPTSKKKETESAIYIFISDTGRPFVEMYSEIPEIIHMTEGRELVIPCRVTSPNITVTLKKFPLDTLIPDGKRIIWDSRKGFIISNATYKEIGLLTCEATVNGHLYKTNYLTHRQTNTIIDVQISTPRPVKLLRGHTLVLNCTATTPLNTRVQMTWSYPDEKNKRASVRRRIDQSNSHANIFYSVLTIDKMQNKDKGLYTCRVRSGPSFKSVNTSVHIYDKAFITVKHRKQQVLETVAGKRSYRLSMKVKAFPSPEVVWLKDGLPATEKSARYLTRGYSLIIKDVTEEDAGNYTILLSIKQSNVFKNLTATLIVNVKPQIYEKAVSSFPDPALYPLGSRQILTCTAYGIPQPTIKWFWHPCNHNHSEARCDFCSNNEESFILDADSNMGNRIESITQRMAIIEGKNKMASTLVVADSRISGIYICIASNKVGTVGRNISFYITDVPNGFHVNLEKMPTEGEDLKLSCTVNKFLYRDVTWILLRTVNNRTMHYSISKQKMAITKEHSITLNLTIMNVSLQDSGTYACRARNVYTGEEILQKKEITIRDQEAPYLLRNLSDHTVAISSSTTLDCHANGVPEPQITWFKNNHKIQQEPGIILGPGSSTLFIERVTEEDEGVYHCKATNQKGSVESSAYLTVQGTSDKSNLE
notes: vascular endothelial growth factor receptor 1 (VEGFR1), recombinant Fc fusion protein; also called recombinant Fc fusion protein of VEGFR1; source: bought: R&D Systems
Question: Does B2 bind (V21H4-DOS47)?
Answer: no binding
